Source: article PMC7864924, “Structures of active-state orexin receptor 2 rationalize peptide and small-molecule agonist recognition and receptor activation” (Nature Communications, 2021)

T1: Engineered human orexin receptor 2 (OX2R) truncated after R389, ICL3 residues V261-A291 deleted, with an … (human, UniProt O43614 1-389, residues V261–A291 deleted, biotin on the Avi-tag (BirA biotin-protein ligase))
T1 construct: Orexin receptor type 2 (OX2R), human, truncated after residue R389, part of ICL3 (residues V261-A291) deleted; M1 is said to be present in the construct; Detergent-solubilised receptor (DDM/CHS); The PDB entries hold the construct without the Avi-tag; also called engineered OX2R; orexin receptor type 2; source: biotinylated with BirA; not shown: Avi-tag, N-terminal, kept
T1 sequence (looked up): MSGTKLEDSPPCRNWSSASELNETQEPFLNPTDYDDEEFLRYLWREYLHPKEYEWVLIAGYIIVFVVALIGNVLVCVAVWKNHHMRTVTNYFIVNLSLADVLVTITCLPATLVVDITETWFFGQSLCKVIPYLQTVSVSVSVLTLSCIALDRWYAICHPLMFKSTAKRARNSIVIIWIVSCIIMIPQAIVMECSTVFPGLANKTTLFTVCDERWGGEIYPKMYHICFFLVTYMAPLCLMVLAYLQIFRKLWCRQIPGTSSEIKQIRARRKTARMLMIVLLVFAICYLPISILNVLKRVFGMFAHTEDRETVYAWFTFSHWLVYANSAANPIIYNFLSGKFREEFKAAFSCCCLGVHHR

B1: 30 (VHH)
VHH: QVQLVESGGGLVQAGGSLRLSCAASGFPVKTYTMYWYRQAPGKEREWVAAIESTGRYTAYADSVKGRFTISRDNAKNTVYLQMNSLKPEDTAVYYCEVYVGFFYHGQGTQVTVS
B2: 42 (VHH)
VHH: QVQLVESGGGLVQAGGSLRLSCAASGFPVNTRSMYWYRQAPGKEREWVAAIASTGWSTAYADSVKGRFTISRDNAKNTVYLQMNSLKPEDTAVYYCEVEVGYWYYGQGTQVTVS
B3: 48 (VHH)
VHH: QVQLVESGGGLVQAGGSLRLSCAASGFPVAMNTMYWYRQAPGKEREWVAAITSSGEHTAYADSVKGRFTISRDNAKNTVYLQMNSLKPEDTAVYYCEVYVGYFYHGQGTQVTVS
B4: 54 (VHH)
VHH: QVQLVESGGGLVQAGGSLRLSCAASGFPVQHYVMYWYRQAPGKEREWVAAIDSSGAHTVYADSVKGRFTISRDNAKNTVYLQMNSLKPEDTAVYYCEVYVGWFYHGQGTQVTVS
B5: 33 (VHH)
VHH: QVQLVESGGGLVQAGGSLRLSCAASGFPVDKAHMYWYRQAPGKEREWVAAIDSTGSYTHYADSVKGRFTISRDNAKNTVYLQMNSLKPEDTAVYYCEVYVGYMYHGQGTQVTVS
B6: 32 (VHH)
VHH: QVQLVESGGGLVQAGGSLRLSCAASGFPVAEKSMYWYRQAPGKEREWVAAIASNGVLTAYADSVKGRFTISRDNAKNTVYLQMNSLKPEDTAVYYCEVYVGYFYHGQGTQVTVS
B7: 57 (VHH)
VHH: QVQLVESGGGLVQAGGSLRLSCAASGFPVSQKTMYWYRQAPGKEREWVAAIASEGQKTAYADSVKGRFTISRDNAKNTVYLQMNSLKPEDTAVYYCEVYVGYFYHGQGTQVTVS
B8: 47 (VHH)
VHH: QVQLVESGGGLVQAGGSLRLSCAASGFPVDSKTMYWYRQAPGKEREWVAAIASAGHLTAYADSVKGRFTISRDNAKNTVYLQMNSLKPEDTAVYYCEVHVGWFYHGQGTQVTVS
B9: 36 (VHH)
VHH: QVQLVESGGGLVQAGGSLRLSCAASGFPVNTHTMYWYRQAPGKEREWVAAITSNGQSTAYADSVKGRFTISRDNAKNTVYLQMNSLKPEDTAVYYCEVRVGYFYHGQGTQVTVS
B10: 53 (VHH)
VHH: QVQLVESGGGLVQAGGSLRLSCAASGFPVNTRSMYWYRQAPGKEREWVAAIASTGWSTAYADSVKGRFTISRDNAKNTVYLQMNSLKPEDTAVYYCEVYVGYFYHGQGTQVTVS
B11: 40 (VHH)
VHH: QLQLVESGGGLVQAGGSLRLSCAASGFPVRSYTMYWYSQAPGKEREWVAAINSQGNTTAYADSVKGRFTISRDNAKNTVYLQMNSLKPEDTAVYYCEVYVGYWYHGQGTQVTVS
B12: 50 (VHH)
VHH: QVQLVESGGGLVQAGGSLRLSCAASGFPVWHDTMYWYRQAPGKEREWVAAIGSTGNLTAYADSVKGRFTISRDNAKNTVYLQMNSLKPEDTAVYYCEVYVGYFYHGQGTQVTVS
B13: 49 (VHH)
VHH: QVQLVESGGGLVQAGGSLRLSCAASGFPVYNNTMYWYRQAPGKEREWVAAISSGGSNTAYADSVKGRFTISRDNAKNTVYLQMNSLKPEDTAVYYCEVYVGYFYHGQGTQVTVS
B14: 38 (VHH)
VHH: QVQLVESGGGLVQAGGSLRLSCAASGFPVYTNTMYWYRQAPGKEREWVAAITSSGHNTAYADSVKGRFTISRDNAKNTVYLQMNSLKPEDTAVYYCEVYVGWFYHGQGTQVTVS
B15: 31 (VHH)
VHH: QVQLVESGGGLVQAGGSLRLSCAASGFPVTENTMYWYRQAPGKEREWVAAITSNGSQTAYADSVKGRFTISRDNAKNTVYLQMNSLKPEDTAVYYCEVYVGYFYHGQGTQVTVS
B16: 41 (VHH)
VHH: QVQLVESGGGLVQAGGSLRLSCAASGFPVNSYVMYWYRQAPGKEREWVAAIGSTGEYTAYADSVKGRFTISRDNAKNTVYLQMNSLKPEDTAVYYCEVFVGYFYYGQGTQVTVS
B17: 34 (VHH)
VHH: QVQLVESGGGLVQAGGSLRLSCAASGFPVNNRSMYWYRQAPGKEREWVAAIASSGFTTAYADSVKGRFTISRDNAKNTVYLQMNSLKPEDTAVYYCEVVVGYWYHGQGTQVTVS
B18: 35 (VHH)
VHH: QVQLVESGGGLVQAGGSLRLSCAASGFPVRWKSMAWYRQAPGKEREWVAAISSYGFWTEYADSVKGRFTISRDNAKNTVYLQMNSLKPEDTAVYYCIVHVGVSYRGQGTQVTVS
B19: 52 (VHH)
VHH: QVQLVESGGGLVQAGGSLRLSCAASGFPVKWKSMAWYRQAPGKEREWVAAISSYGWHTEYADSVKGRFTISRDNAKNTVYLQMNSLKPEDTAVYYCTVNVGKGYEGQGTQVTVS
B20: 37 (VHH)
VHH: QVQLVESGGGLVQAGGSLRLSCAASGFPVWWKSMAWYRQAPGKEREWVAAISSFGWYTEYADSVKGRFTISRDNAKNTVYLQMNSLKPEDTAVYYCAVYVGSYYWGRGTQVTVS
B21: 39 (VHH)
VHH: QVQLVESGGGLVQAGGSLRLSCAASGFPVKWKSMAWYRQAPGKEREWVAAISSWGWYTEYADSVKGRFTISRDNAKNTVYLQMNSLKPEDTAVYYCYVYVGHTYHGQGTQVTVS
B22: 43 (VHH)
VHH: QVQLVESGGGLVQAGGSLRLSCAASGFPVSYIGMEWYRQAPGKEREWVAAITGFGHWTAYADSVKGRFTISRDNAKNTVYLQMNSLKPEDTAVYYCEVQVGAKYYGQGTQVTVS
B23: Synthetic nanobody clone 45 (VHH)
VHH: QVQLVESGGGLVQAGGSLRLSCAASGFPVYTYTMYWYRQAPGKEREWVAAITSEGISTAYADSVKGRFTISRDNAKNTVYLQMNSLKPEDTAVYYCEVYVGYFYHGQGTQVTVS
notes: synthetic nanobody selected from the libraries of Zimmermann and coworkers by ribosome display and phage display; Host, tags and purification are told only for Sb51 (clone 51); also called Clone No. 45
B24: Synthetic nanobody clone 44 (VHH)
VHH: QVQLVESGGGLVQAGGSLRLSCAASGFPVDTYTMYWYRQAPGKEREWVAAINSNGHHTAYADSVKGRFTISRDNAKNTVYLQMNSLKPEDTAVYYCEVYVGWWYYGQGTQVTVS
notes: synthetic nanobody selected from the libraries of Zimmermann and coworkers by ribosome display and phage display; Host, tags and purification are told only for Sb51 (clone 51); also called Clone No. 44
B25: Synthetic nanobody clone 46 (VHH)
VHH: QVQLVESGGGLVQAGGSLRLSCAASGFPVDAYVMYWYRQAPGKEREWVAAIASQGHPTAYADSVKGRFTISRDNAKNTVYLQMNSLKPEDTAVYYCEVYVGYFYHGQGTRVTVS
notes: synthetic nanobody selected from the libraries of Zimmermann and coworkers by ribosome display and phage display; Host, tags and purification are told only for Sb51 (clone 51); also called Clone No. 46
B26: Synthetic nanobody clone 55 (VHH)
VHH: QVQLVESGGGLVQAGGSLRLSCAASGFPVQSHTMYWYRQAPGKEREWVAAINSTGQGTAYADSVKGRFTISRDNAKNTVYLQMNSLKPEDTAVYYCEVYVGYFYHGQGTQVTVS
notes: synthetic nanobody selected from the libraries of Zimmermann and coworkers by ribosome display and phage display; Host, tags and purification are told only for Sb51 (clone 51); also called Clone No. 55
B27: Synthetic nanobody clone 13 (VHH)
VHH: QVQLVESGGGLVQAGGSLRLSCAASGFPVNAREMYWYRQAPGKEREWVAAIVSKGSHTEYADSVKGRFTISRDNAKNTVYLQMNSLKPEDTAVYYCNVKDFGWWAVYYDYWGQGTQVTVS
notes: synthetic nanobody selected from the libraries of Zimmermann and coworkers by ribosome display and phage display; Host, tags and purification are told only for Sb51 (clone 51); also called Clone No. 13
B28: Synthetic nanobody clone 7 (VHH)
VHH: QVQLVESGGGLVQAGGSLRLSCAASGFPVLRQEMFWYRQAPGKEREWVAAIWSKGSTTEYADSVKGRFTISRDNAKNTVYLQMNSLKPEDTAVYYCNVKDYGWWNNWYDYWGQGTQVTVS
notes: synthetic nanobody selected from the libraries of Zimmermann and coworkers by ribosome display and phage display; Host, tags and purification are told only for Sb51 (clone 51: E. coli C41(DE3), MBP fusion cleaved by TEV); also called Clone No. 7
B29: Synthetic nanobody clone 15 (VHH)
VHH: QVQLVESGGGLVQAGGSLRLSCAASGFPVKQREMAWYRQAPGKEREWVAAIWSKGAHTVYADSVKGRFTISRDNAKNTVYLQMNSLKPEDTAVYYCNVKDFGWWNRQYDYWGQGTQVTVS
notes: synthetic nanobody selected from the libraries of Zimmermann and coworkers by ribosome display and phage display; Host, tags and purification are told only for Sb51 (clone 51); also called Clone No. 15
B30: Synthetic nanobody clone 56 (VHH)
VHH: QVQLVESGGGLVQAGGSLRLSCAASGFPVVSYNMKWYRQAPGKEREWVAAIYSFGSLGSWTHYADSVKGRFTISRDNAKNTVYLQMNSLKPEDTAVYYCHVYVGATYYGQGTQVTVS
notes: synthetic nanobody selected from the libraries of Zimmermann and coworkers by ribosome display and phage display; Host, tags and purification are told only for Sb51 (clone 51); also called Clone No. 56

Each binder was assayed against engineered OX2R carrying an additional amino-terminal Avi-tag, biotinylated (Homo sapiens, UniProt O43614, residues V261–A291 deleted, biotin on the Avi-tag (BirA biotin-protein ligase)) (assay: not given). Details: not given.
B1: binds. B2: binds. B3: binds. B4: binds. B5: binds. B6: binds. B7: binds. B8: binds. B9: binds. B10: binds. B11: binds. B12: binds. B13: binds. B14: binds. B15: binds. B16: binds. B17: binds. B18: binds. B19: binds. B20: binds. B21: binds. B22: binds.

What follows are binders tested against T1, Engineered human orexin receptor 2 … (assay: grating-coupled interferometry; WAVE system (Creoptix); agonist-bound OX2R immobilised via the biotinylated Avi-tag on a neutravidin-coated WAVEchip 4PCP; nanobody as analyte). Details: both partners purified.
B23 was tested, and the Kd was 11 nM. Binder B24 has a Kd of 7.7 nM. For B25, the Kd was 4.2 nM. With B26 the Kd was 7.3 nM. For B27, the Kd was 12 nM. B28 gave a Kd of 11 nM. Binder B29 has a Kd of 300 nM. B30 was tested, and the Kd was 0.5 nM.
